Article PMC3266958 (Oncogene, 2011)

Biological target: purified bovine calmodulin (bovine, UniProt P62157 1-149)
Experiment: ITC

- Kd: 810 nM
B1: FBXL2 (ITC with CaM, data not shown) (natural protein)
chain: MVFSNNDEGLINKKLPKELLLRIFSFLDIVTLCRCAQISKAWNILALDGSNWQRIDLFNFQTDVEGRVVENISKRCGGFLRKLSLRGCIGVGDSSLKTFAQNCRNIEHLNLNGCTKITDSTCYSLSRFCSKLKHLDLTSCVSITNSSLKGISEGCRNLEYLNLSWCDQITKDGIEALVRGCRGLKALLLRGCTQLEDEALKHIQNYCHELVSLNLQSCSRITDEGVVQICRGCHRLQALCLSGCSNLTDASLTALGLNCPRLQILEAARCSHLTDAGFTLLARNCHELEKMDLEECILITDSTLIQLSIHCPKLQALSLSHCELITDDGILHLSNSTCGHERLRVLELDNCLLITDVALEHLENCRGLERLELYDCQQVTRAGIKRMRAQLPHVKVHAYFAPVTPPTAVAGSGQRLCRCCVIL
